The values below come from the RNAGym collection of RNA variant scans (doi:10.1093/molbev/msab373).

B1: Azoarcus group I ribozyme (parent)
chain: GUGCCUUGCGCCGGGAAACCACGCAAGGGAUGGUGUCAAAUUCGGCGAAACCUAAGCGCCCGCCCGGGCGUAUGGCAACGCCGAGCCAAGCUUCGGCGCCUGCGCCGAUGAAGGUGUAGAGACUAGACGGCACCCACCUAAGGCAAACGCUAUGGUGAAGGCAUAGUCCAGGGAGUGGCGAAAGUCACACAAACCGG

In this data set the parent is B1. Briefly: reverse-splicing fitness (ratio to wild type); higher = more active; in vitro selection; Mg2+ level not given. An outline of the steps:
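An in vitro group I ribozyme library with randomized positions was T7-transcribed and gel-purified. In triplicate, 10 pmol RNA in EPPS pH 7.5 was reacted with 50 pmoles of a 30-nt RNA substrate for 1 h at 37 °C across several added MgCl2 levels (1–48 mM), then stopped with EDTA. Products were reverse transcribed from a substrate-complementary primer, PCR-amplified and sequenced (HiSeq 4000). Fitness is a variant's read proportion after selection over that before, normalised to wild type.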
On to C82G A111U A120U A145C C150G C169U U176A, for which the reverse-splicing fitness was found to be 0.00273. The figure for C82G A111U A120U A145C C150G C169U U176C is 0.00279; for C82G A111U A120U A145C C150G C169U U176G it is 0.00252; for C82G A111U A120U A145G C150G it is 0.00902. C82G A111U A120U A145G C150A: the reverse-splicing fitness was 0.0109. Consider C82G A111U A120U A145G C150G C169G U176A, for which the reverse-splicing fitness came to 0.00963. On to C82G A111U A120U A145G C150G C169G U176C, for which the reverse-splicing fitness came out at 0.00596. With C82G A111U A120U A145G C150G C169G U176G, the reverse-splicing fitness came to 0.00407.

Turning to C82G A111U A120G A145G C169G U176A, the reverse-splicing fitness amounted to 0.0166. The figure for C82G A111U A120G A145G C169G U176C is 0.0235. Then C82G A111U A120G A145G C169G U176G, with 0.00429. Then C82G A111U A120U A145C C150U C169A U176A, with 0.00212; and C82G A111U A120U A145C C150U C169A U176G, with 0.00176; and C82G A111U A120U A145C C150U C169A U176C, with 0.0022.

As for C82G A111U A120U A145C C150U, the reverse-splicing fitness is 0.0116. The figure for C82G A111U A120U A145C C150A is 0.00458; for C82G A111U A120U A145C C150G it is 0.00763. Then C82G A111U A120G A145C C150G C169U U176G, with 0.00569; and C82G A111U A120G A145C C150G C169U U176A, with 0.0121; and C82G A111U A120G A145C C150G C169U U176C, with 0.0123.

As for C82G A111U A120G A145G C150U C169G U176A, the reverse-splicing fitness is 0.0137.

For the variant C82G A111U A120G A145G C150U C169G U176C, the reverse-splicing fitness worked out at 0.0192. Then C82G A111U A120G A145G C150U C169G U176G, with 0.00526; and C82G A111U A120U A145C C150U C169G U176G, with 0.0021. Then C82G A111U A120U A145C C150U C169G U176C, with 0.00262; and C82G A111U A120U A145C C150U C169G U176A, with 0.00298; and C82G A111U A120U A145C C150A C169G, with 0.00272. For C82G A111U A120U A145C C150A C169U, the reverse-splicing fitness came to 0.0027. The figure for C82G A111U A120U A145C C150A C169A is 0.00264; for C82G A111U A120U A145C C150U U176A it is 0.00477. As to C82G A111U A120U A145C C150U U176G, the reverse-splicing fitness is 0.00297. Then C82G A111U A120U A145C C150U U176C, with 0.00545; and C82G A111U A120U A145C C150G U176C, with 0.00425; and C82G A111U A120U A145C C150G U176A, with 0.00296. The figure for C82G A111U A120U A145C C150G U176G is 0.00236; for C82G A111U A120G A145C C150U C169G U176G it is 0.00518. The figure for C82G A111U A120G A145C C150U C169G U176A is 0.023; for C82G A111U A120G A145C C150U C169G U176C it is 0.0136.

On to C82G A111U A120U A145C C169A U176A, for which the reverse-splicing fitness came out at 0.00191. Then C82G A111U A120U A145C C169A U176C, with 0.00232; and C82G A111U A120U A145C C169A U176G, with 0.00205. The figure for C82G A111U A120G A145G C150U U176G is 0.00777; for C82G A111U A120G A145G C150U U176C it is 0.0167. The figure for C82G A111U A120G A145G C150U U176A is 0.00946; for C82G A111U A120G A145G C150U it is 0.0139. On to C82G A111U A120G A145G C150G, for which the reverse-splicing fitness turned out to be 0.00786. The figure for C82G A111U A120G A145G C150A is 0.00899; for C82G A111U A120G A145U C150U it is 0.0139. The figure for C82G A111U A120G A145U C150A is 0.00819. Take C82G A111U A120G A145U C150G: the reverse-splicing fitness turned out to be 0.00715.

For C82G A111U A120G U176G, the reverse-splicing fitness came to 0.00905.

Turning to C82G A111U A120G U176C, the reverse-splicing fitness amounted to 0.0216. As to C82G A111U A120G U176A, the reverse-splicing fitness is 0.0148. In the case of C82G A111U A120G C169A, the reverse-splicing fitness turned out to be 0.00993. Then C82G A111U A120G C169G, with 0.014; and C82G A111U A120G C169U, with 0.0106; and C82G A111U A120G C150U C169A U176A, with 0.0173.

For the variant C82G A111U A120G C150U C169A U176G, the reverse-splicing fitness was found to be 0.00614. The figure for C82G A111U A120G C150U C169A U176C is 0.0182; for C82G A111U A120G A145C C169A U176A it is 0.0152.

In the case of C82G A111U A120G A145C C169A U176C, the reverse-splicing fitness stood at 0.00976.

With C82G A111U A120G A145C C169A U176G, the reverse-splicing fitness is 0.00399.

For C82G A111U A120U A145C C150A U176A, the reverse-splicing fitness was determined as 0.00311. As for C82G A111U A120U A145C C150A U176C, the reverse-splicing fitness worked out at 0.00373. Then C82G A111U A120U A145C C150A U176G, with 0.00209. The figure for C82G A111U A120G A145U C150G C169U U176C is 0.013. For the variant C82G A111U A120G A145U C150G C169U U176A, the reverse-splicing fitness is 0.0111. Then C82G A111U A120G A145U C150G C169U U176G, with 0.00505.

As to C82G A111U A120G A145G C150U C169A, the reverse-splicing fitness was determined as 0.0121.

In the case of C82G A111U A120G A145G C150U C169U, the reverse-splicing fitness was determined as 0.0112. Then C82G A111U A120G A145G C150U C169G, with 0.0128. As to C82G A111U A120G A145C C150G U176C, the reverse-splicing fitness came out at 0.0105. The figure for C82G A111U A120G A145C C150G U176G is 0.00342; for C82G A111U A120G A145C C150G U176A it is 0.0058.

With C82G A111U A120G A145C C150U C169G, the reverse-splicing fitness was 0.00915. Take C82G A111U A120G A145C C150U C169U: the reverse-splicing fitness was 0.00738.

Turning to C82G A111U A120G A145C C150U C169A, the reverse-splicing fitness was determined as 0.00886. Then C82G A111U A120G A145C C150U U176C, with 0.012. Consider C82G A111U A120G A145C C150U U176G, for which the reverse-splicing fitness came to 0.00601. The figure for C82G A111U A120G A145C C150U U176A is 0.00941; for C82G A111U A120G C150G C169U it is 0.00861. The figure for C82G A111U A120G C150G C169G is 0.00797. The figure for C82G A111U A120G C150G C169A is 0.00883.
